Reference: patent publication US7196181B1, “Sequences encoding novel human thyroid peroxidase proteins and polypeptides” (Quest Diagnostics Investments, Inc., priority 1989, dated 2007)
Several values for one entry are separate records, joined by “and”; a condition that tells them apart may be missing. Equal values may be shown once. One block for each molecule: values may come before it.

What was measured:
[1] = target: secreted truncated recombinant human thyroid peroxidase (hTPO-M1) (human) (UniProt P07202); assay: competition ELISA on secreted TPO; competitor: serum IgG4 TPO autoantibody, first patient; set-up: concentration or dose not given beside the values
[2] = target: secreted truncated recombinant human thyroid peroxidase (hTPO-M1) (human) (UniProt P07202); assay: confluent plaque lysis assay; competition of unlabeled TPO with 125I-TPO, densitometry
[3] = target: secreted truncated recombinant human thyroid peroxidase (hTPO-M1) (human) (UniProt P07202); assay: Scatchard analysis; 125I-TPO with unlabeled TPO, anti-kappa/Sac-cel precipitation
[4] = target: secreted truncated recombinant human thyroid peroxidase (hTPO-M1) (human) (UniProt P07202); assay: Scatchard analysis, 125I-TPO
[5] = target: secreted truncated recombinant human thyroid peroxidase (hTPO-M1) (human) (UniProt P07202); assay: competition ELISA on secreted TPO; competitor: serum IgG1 TPO autoantibody, first patient; set-up: concentration or dose not given beside the values
[6] = target: secreted truncated recombinant human thyroid peroxidase (hTPO-M1) (human) (UniProt P07202); assay: competition ELISA on secreted TPO; competitor: serum IgG2 TPO autoantibody, third patient; set-up: concentration or dose not given beside the values
[7] = target: secreted truncated recombinant human thyroid peroxidase (hTPO-M1) (human) (UniProt P07202); assay: competition ELISA on secreted TPO; competitor: serum IgG1 TPO autoantibody, second patient; set-up: concentration or dose not given beside the values
[8] = target: secreted truncated recombinant human thyroid peroxidase (hTPO-M1) (human) (UniProt P07202); assay: Scatchard analysis; unlabeled TPO competing with 125I-TPO for the Fab
[9] = target: secreted truncated recombinant human thyroid peroxidase (hTPO-M1) (human) (UniProt P07202); assay: competition ELISA on secreted TPO; competitor: serum lambda TPO autoantibodies (4 sera)
[10] = target: secreted truncated recombinant human thyroid peroxidase (hTPO-M1) (human) (UniProt P07202); assay: competition with serum TPO autoantibodies (11 sera); SP1.2 10^-10 to 10^-7 M; Protein A precipitation
[11] = target: secreted truncated recombinant human thyroid peroxidase (hTPO-M1) (human) (UniProt P07202); assay: competition with serum TPO autoantibodies (5 sera); Protein A precipitation
[12] = target: secreted truncated recombinant human thyroid peroxidase (hTPO-M1) (human) (UniProt P07202); assay: competition ELISA on secreted TPO; competitor: serum IgG4 TPO autoantibody, second patient; set-up: concentration or dose not given beside the values
CHO-TPO12b cells = assay: Radiolabeled D-glucosamine incorporation into proteins, control experiment; assay type: cell-based, Chinese hamster; settings: tunicamycin treatment under similar conditions (0.5 μg/ml, 20 hours); mean±S.D.; n=3
Procedure: Human TPO contains 5 potential glycosylation sites. It was therefore examined whether carbohydrate moieties are important in the conformation of the epitope(s) in the human TPO antigen(s) recognized by Hashimoto's sera. Western blot analyses were performed on proteins extracted from CHO-TPO12b cells pre-cultured for 20 hours in 0.5 μg/ml tunicamycin, an inhibitor of protein glycosylation. This length of time was chosen because it was the longest tolerated without evidence of significant toxicity (i.e., cell loss). […] In a control experiment, tunicamycin treatment under similar conditions decreased radiolabeled D-glucosamine incorporation into proteins by 56.3±4.8% (mean±S.D.; n=3).

Thyroid Peroxidase (TPO) = assay: Assay of human TPO enzymatic activity (guaiacol and iodide peroxidase); assay type: biochemical; settings: conditioned medium of transfected CHO cells, collected after 3 days of culture
Procedure: […] P., et al., Endocrinol. 116:1493-1500 (1985)). In later experiments, a more rapid method was used. Cells were suspended with a rubber scraper in 1.5 ml calcium-magnesium free Dulbecco's phosphate-buffered saline and protein determined on a 5 ul aliquot. […] […] One guaiacol unit is defined as a _A470 of 1.0 per minute which is equivalent to 150 nmols guaiacol oxidized per minute (Chance, B., et al., In Methods in Enzymology (Colonic. S. P., et al.), Academic Press, New York 2:164-[…] (1955)). One unit of iodide peroxidase is defined as a _A353 of 1.0 per minute which corresponds to 43 nmols I3-formed per minute (Magnusson, R. P., et al., J. Biol. Chem. 259:13783-13790 (1984)).

[13] = target: T1, recombinant human thyroid peroxidase (hTPO), full-length wild-type, expressed in CHO cells (human, UniProt P07202 19-933); assay: lectin affinity chromatography of 35S-labeled CHO-TPO extract, then immunoprecipitation
T1 construct: Used on intact CHO cells (FACS), as CHO microsomes (ELISA) and as non-denatured detergent extracts (non-reducing Western blot, immunoprecipitation); also called human TPO; thyroid microsomal antigen
T1 sequence: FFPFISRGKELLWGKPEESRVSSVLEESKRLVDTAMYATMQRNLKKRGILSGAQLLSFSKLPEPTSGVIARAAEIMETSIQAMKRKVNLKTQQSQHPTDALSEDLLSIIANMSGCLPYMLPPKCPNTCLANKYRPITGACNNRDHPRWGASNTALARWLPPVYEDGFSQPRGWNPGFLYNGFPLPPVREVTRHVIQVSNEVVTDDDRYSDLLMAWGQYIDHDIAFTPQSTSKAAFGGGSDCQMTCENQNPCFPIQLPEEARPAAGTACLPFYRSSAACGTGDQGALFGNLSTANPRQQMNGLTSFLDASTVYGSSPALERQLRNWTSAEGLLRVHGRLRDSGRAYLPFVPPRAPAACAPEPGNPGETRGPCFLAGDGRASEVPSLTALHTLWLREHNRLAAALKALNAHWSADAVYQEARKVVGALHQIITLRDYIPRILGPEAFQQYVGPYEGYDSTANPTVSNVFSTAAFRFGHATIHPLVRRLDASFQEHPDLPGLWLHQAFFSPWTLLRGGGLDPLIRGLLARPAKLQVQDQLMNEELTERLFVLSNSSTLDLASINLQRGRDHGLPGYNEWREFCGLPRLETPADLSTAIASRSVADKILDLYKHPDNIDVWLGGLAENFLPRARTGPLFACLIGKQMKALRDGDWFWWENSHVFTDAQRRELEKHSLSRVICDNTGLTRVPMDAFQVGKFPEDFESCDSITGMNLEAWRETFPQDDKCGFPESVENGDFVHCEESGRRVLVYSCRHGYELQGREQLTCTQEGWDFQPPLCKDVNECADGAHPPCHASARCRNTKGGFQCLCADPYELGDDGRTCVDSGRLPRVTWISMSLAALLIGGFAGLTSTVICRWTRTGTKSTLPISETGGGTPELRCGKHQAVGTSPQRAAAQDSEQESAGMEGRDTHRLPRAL

Molecule: human TPO-specific Fab fragment SP1.2
% inhibition [1]: 77% | Kd [2]: 1000 pM | Kd [3]: 80 pM | Kd [4]: 60 pM and 80 pM | % inhibition [5]: 14% | % inhibition [6]: 29% | % inhibition [7]: 62% | Kd [8]: 83 pM | % inhibition [9]: 12 to 18% | maximum % inhibition of serum autoantibody binding to 125I-TPO [10]: 36 to 72% | mean % inhibition of serum autoantibody binding to 125I-TPO [11]: 55% | % inhibition [12]: 13%

Molecule: tunicamycin
Decrease of radiolabeled D-glucosamine incorporation into proteins (CHO-TPO12b cells): 56.3±4.8%

B3: mutated form of hTPO: truncated, secreted recombinant human TPO (848 amino acids) from CHO-TPO-M1-K1 cells (protein)
chain: FFPFISRGKELLWGKPEESRVSSVLEESKRLVDTAMYATMQRNLKKRGILSGAQLLSFSKLPEPTSGVIARAAEIMETSIQAMKRKVNLKTQQSQHPTDALSEDLLSIIANMSGCLPYMLPPKCPNTCLANKYRPITGACNNRDHPRWGASNTALARWLPPVYEDGFSQPRGWNPGFLYNGFPLPPVREVTRHVIQVSNEVVTDDDRYSDLLMAWGQYIDHDIAFTPQSTSKAAFGGGSDCQMTCENQNPCFPIQLPEEARPAAGTACLPFYRSSAACGTGDQGALFGNLSTANPRQQMNGLTSFLDASTVYGSSPALERQLRNWTSAEGLLRVHGRLRDSGRAYLPFVPPRAPAACAPEPGNPGETRGPCFLAGDGRASEVPSLTALHTLWLREHNRLAAALKALNAHWSADAVYQEARKVVGALHQIITLRDYIPRILGPEAFQQYVGPYEGYDSTANPTVSNVFSTAAFRFGHATIHPLVRRLDASFQEHPDLPGLWLHQAFFSPWTLLRGGGLDPLIRGLLARPAKLQVQDQLMNEELTERLFVLSNSSTLDLASINLQRGRDHGLPGYNEWREFCGLPRLETPADLSTAIASRSVADKILDLYKHPDNIDVWLGGLAENFLPRARTGPLFACLIGKQMKALRDGDWFWWENSHVFTDAQRRELEKHSLSRVICDNTGLTRVPMDAFQVGKFPEDFESCDSITGMNLEAWRETFPQDDKCGFPESVENGDFVHCEESGRRVLVYSCRHGYELQGREQLTCTQEGWDFQPPLCKDVNECADGAHPPCHASARCRNTKGGFQCLCADPYELGDDGRTCVDSGRLPRVT
TPO activity in culture medium (Thyroid Peroxidase (TPO)): 1.0 guaiacol U/10 ml medium

More lines, now with the values ahead:

TPO activity in culture medium (Thyroid Peroxidase (TPO)): no detectable enzymatic activity
B1: wild-type hTPO: full-length membrane-associated recombinant human TPO expressed in CHO cells (protein, UniProt P07202 1-933, looked up)
chain: MRALAVLSVTLVMACTEAFFPFISRGKELLWGKPEESRVSSVLEESKRLVDTAMYATMQRNLKKRGILSPAQLLSFSKLPEPTSGVIARAAEIMETSIQAMKRKVNLKTQQSQHPTDALSEDLLSIIANMSGCLPYMLPPKCPNTCLANKYRPITGACNNRDHPRWGASNTALARWLPPVYEDGFSQPRGWNPGFLYNGFPLPPVREVTRHVIQVSNEVVTDDDRYSDLLMAWGQYIDHDIAFTPQSTSKAAFGGGADCQMTCENQNPCFPIQLPEEARPAAGTACLPFYRSSAACGTGDQGALFGNLSTANPRQQMNGLTSFLDASTVYGSSPALERQLRNWTSAEGLLRVHARLRDSGRAYLPFVPPRAPAACAPEPGIPGETRGPCFLAGDGRASEVPSLTALHTLWLREHNRLAAALKALNAHWSADAVYQEARKVVGALHQIITLRDYIPRILGPEAFQQYVGPYEGYDSTANPTVSNVFSTAAFRFGHATIHPLVRRLDASFQEHPDLPGLWLHQAFFSPWTLLRGGGLDPLIRGLLARPAKLQVQDQLMNEELTERLFVLSNSSTLDLASINLQRGRDHGLPGYNEWREFCGLPRLETPADLSTAIASRSVADKILDLYKHPDNIDVWLGGLAENFLPRARTGPLFACLIGKQMKALRDGDWFWWENSHVFTDAQRRELEKHSLSRVICDNTGLTRVPMDAFQVGKFPEDFESCDSITGMNLEAWRETFPQDDKCGFPESVENGDFVHCEESGRRVLVYSCRHGYELQGREQLTCTQEGWDFQPPLCKDVNECADGAHPPCHASARCRNTKGGFQCLCADPYELGDDGRTCVDSGRLPRVTWISMSLAALLIGGFAGLTSTVICRWTRTGTKSTLPISETGGGTPELRCGKHQAVGTSPQRAAAQDSEQESAGMEGRDTHRLPRAL
modifications: full-length
notes: full-length membrane-associated recombinant human TPO expressed in CHO cells

binding result [13]: no binding
B2: Ulex europaeus lectin (agarose-bound) (other)
chain: SDDLSFKFKNFSQNGKDLSFQGDASVIETGVLQLNKVGNNLPDETGGIARYIAPIHIWNCNTGEVASFITSFSFFMETSANPKAATDGLTFFLAPPDSPLRRAGGYFGLFEDTKDNDSSYQTVAVEFDTIGSPVNFDDPGFPHIGIDVNRVKSINAERWNKRYGLNNVANVEIIYEASSKTLTASLTYPSDQTSISVTSIVDLKEILPEWVSVGFSGGTYIGRQATHEVLNWYFTSNLINTNS
modifications: Lectin immobilised on agarose beads. The native lectin is a glycosylated homodimer; one subunit is given.
notes: also called UEA-F

binding result [13]: no binding
B4: peanut agglutinin (agarose-bound lectin) (other, UniProt P02872 24-259, looked up)
chain: AETVSFNFNSFSEGNPAINFQGDVTVLSNGNIQLTNLNKVNSVGRVLYAMPVRIWSSATGNVASFLTSFSFEMKDIKDYDPADGIIFFIAPEDTQIPAGSIGGGTLGVSDTKGAGHFVGVEFDTYSNSEYNDPPTDHVGIDVNSVDSVKTVPWNSVSGAVVKVTVIYDSSTKTLSVAVTNDNGDITTIAQVVDLKAKLPERVKFGFSASGSLGGRQIHLIRSWSFTSTLITTTRRS
notes: also called PNA
